Laboratory results taken from US20180360932A1 (OPKO BIOLOGICS, published 2018).

Columns and labels:
[1] = target: MOD-5014 (FVIIa-CTP3, activated Factor VII-CTP-CTP-CTP) (human) (UniProt P08709); assay: cell-based or functional assay
[2] = target: NovoSeven (commercial recombinant human FVIIa) (human) (UniProt P08709); assay: cell-based or functional assay

- % Inhibition of clotting activity, AT 1.050 ng/mL [1]: 25%
- % Inhibition of clotting activity, AT 10.5 ng/mL [1]: 28%
- % Inhibition of clotting activity, AT 105 ng/mL [1]: 25%
- % Inhibition of clotting activity, AT 10,500 ng/mL [1]: 25%
- % Inhibition of clotting activity, AT 105000 ng/mL [1]: 62%
- % Inhibition of clotting activity, AT 525000 ng/mL [1]: 100%
- Activity (mU/mL), clotting assay, AT 0 ng/mL (no inhibitor) [1]: 70.8 mU/mL
- Activity (mU/mL), clotting assay, AT 1.050 ng/mL [1]: 52.9 mU/mL
- Activity (mU/mL), clotting assay, AT 10.5 ng/mL [1]: 50.7 mU/mL
- Activity (mU/mL), clotting assay, AT 105 ng/mL [1]: 53.3 mU/mL
- Activity (mU/mL), clotting assay, AT 1,050 ng/mL [1]: 53.4 mU/mL
- Activity (mU/mL), clotting assay, AT 10,500 ng/mL [1]: 53 mU/mL
- Activity (mU/mL), clotting assay, AT 105000 ng/mL [1]: 27 mU/mL
- Activity (mU/mL), clotting assay, AT 525000 ng/mL [1]: 0 mU/mL
- O.D, FX activation by MOD-5014 (0.7 ng/ml), AT 0.16 µg/ml [1]: 1.18 O.D
- O.D, FX activation by MOD-5014 (0.7 ng/ml), AT 0.8 µg/ml [1]: 1.07 O.D
- O.D, FX activation by MOD-5014 (0.7 ng/ml), AT 4 µg/ml [1]: 1.14 O.D
- O.D, FX activation by MOD-5014 (0.7 ng/ml), AT 20 µg/ml [1]: 1.11 O.D
- O.D, FX activation by MOD-5014 (0.7 ng/ml), AT 100 µg/ml [1]: 0.974 O.D
- O.D, FX activation by MOD-5014 (0.7 ng/ml), AT 500 µg/ml [1]: 0.975 O.D
- O.D, FX activation by MOD-5014 (0.7 ng/ml), AT 1680 µg/ml [1]: 0.656 O.D
- O.D, FX activation by MOD-5014 (0.7 ng/ml), control (no AT) [1]: 1.09 O.D
- O.D., FX activation by MOD-5014 (0.7 ng/ml) with 1 U/µl heparin, AT 0.032 µg/ml [1]: 1.24 O.D.
- O.D., FX activation by MOD-5014 (0.7 ng/ml) with 1 U/µl heparin, AT 0.16 µg/ml [1]: 1.24 O.D.
- O.D., FX activation by MOD-5014 (0.7 ng/ml) with 1 U/µl heparin, AT 0.8 µg/ml [1]: 1.25 O.D.
- O.D., FX activation by MOD-5014 (0.7 ng/ml) with 1 U/µl heparin, AT 4 µg/ml [1]: 1.26 O.D.
- O.D., FX activation by MOD-5014 (0.7 ng/ml) with 1 U/µl heparin, AT 20 µg/ml [1]: 1.08 O.D.
- O.D., FX activation by MOD-5014 (0.7 ng/ml) with 1 U/µl heparin, AT 100 µg/ml [1]: 0.404 O.D.
- O.D., FX activation by MOD-5014 (0.7 ng/ml) with 1 U/µl heparin, AT 500 µg/ml [1]: 0.153 O.D.
- O.D., FX activation by MOD-5014 (0.7 ng/ml) with 1 U/µl heparin, AT 1680 µg/ml [1]: 0.197 O.D.
- O.D., FX activation by MOD-5014 (0.7 ng/ml), AT III constant 20 µg/ml, heparin 0.002 U/µl [1]: 1.29 O.D.
- O.D., FX activation by MOD-5014 (0.7 ng/ml), AT III constant 20 µg/ml, heparin 0.01 U/µl [1]: 1.14 O.D.
- O.D., FX activation by MOD-5014 (0.7 ng/ml), AT III constant 20 µg/ml, heparin 0.25 U/µl [1]: 0.917 O.D.
- O.D., FX activation by MOD-5014 (0.7 ng/ml), AT III constant 20 µg/ml, heparin 1.25 U/µl [1]: 0.896 O.D.
- O.D., FX activation by MOD-5014 (0.7 ng/ml), AT III constant 20 µg/ml, heparin 6.25 U/µl [1]: 1.02 O.D.
- O.D., FX activation by MOD-5014 (0.7 ng/ml), Control [1]: 1.41 O.D.
- % Inhibition of clotting activity, AT 1.050 ng/mL [2]: 21%
- % Inhibition of clotting activity, AT 105 ng/mL [2]: 20%
- % Inhibition of clotting activity, AT 10,500 ng/mL [2]: 30%
- % Inhibition of clotting activity, AT 525000 ng/mL [2]: 100%
- Activity (mU/mL), clotting assay, AT 0 ng/mL (no inhibitor) [2]: 88.1 mU/mL
- Activity (mU/mL), clotting assay, AT 1.050 ng/mL [2]: 69.5 mU/mL
- Activity (mU/mL), clotting assay, AT 10.5 ng/mL [2]: 68.4 mU/mL
- Activity (mU/mL), clotting assay, AT 105 ng/mL [2]: 70.2 mU/mL
- Activity (mU/mL), clotting assay, AT 1,050 ng/mL [2]: 66.8 mU/mL
- Activity (mU/mL), clotting assay, AT 10,500 ng/mL [2]: 61.5 mU/mL
- Activity (mU/mL), clotting assay, AT 105000 ng/mL [2]: 30.6 mU/mL
- Activity (mU/mL), clotting assay, AT 525000 ng/mL [2]: 0 mU/mL
- O.D, FX activation by NovoSeven (0.7 ng/ml), AT 0.16 µg/ml [2]: 1.23 O.D
- O.D, FX activation by NovoSeven (0.7 ng/ml), AT 4 µg/ml [2]: 1.17 O.D
- O.D, FX activation by NovoSeven (0.7 ng/ml), AT 20 µg/ml [2]: 1.15 O.D
- O.D, FX activation by NovoSeven (0.7 ng/ml), AT 100 µg/ml [2]: 1.14 O.D
- O.D, FX activation by NovoSeven (0.7 ng/ml), AT 500 µg/ml [2]: 0.933 O.D
- O.D, FX activation by NovoSeven (0.7 ng/ml), AT 1680 µg/ml [2]: 0.784 O.D
- O.D, FX activation by NovoSeven (0.7 ng/ml), control (no AT) [2]: 1.28 O.D
- O.D., FX activation by NovoSeven (0.7 ng/ml) with 1 U/µl heparin, AT 0.032 µg/ml [2]: 1.16 O.D.
- O.D., FX activation by NovoSeven (0.7 ng/ml) with 1 U/µl heparin, AT 0.16 µg/ml [2]: 1.19 O.D.
- O.D., FX activation by NovoSeven (0.7 ng/ml) with 1 U/µl heparin, AT 0.8 µg/ml [2]: 1.22 O.D.
- O.D., FX activation by NovoSeven (0.7 ng/ml) with 1 U/µl heparin, AT 4 µg/ml [2]: 1.17 O.D.
- O.D., FX activation by NovoSeven (0.7 ng/ml) with 1 U/µl heparin, AT 20 µg/ml [2]: 1.04 O.D.
- O.D., FX activation by NovoSeven (0.7 ng/ml) with 1 U/µl heparin, AT 100 µg/ml [2]: 0.503 O.D.
- O.D., FX activation by NovoSeven (0.7 ng/ml) with 1 U/µl heparin, AT 500 µg/ml [2]: 0.201 O.D.
- O.D., FX activation by NovoSeven (0.7 ng/ml) with 1 U/µl heparin, AT 1680 µg/ml [2]: 0.141 O.D.
- O.D., FX activation by NovoSeven (0.7 ng/ml), AT III constant 20 µg/ml, heparin 0.002 U/µl [2]: 1.24 O.D.
- O.D., FX activation by NovoSeven (0.7 ng/ml), AT III constant 20 µg/ml, heparin 0.01 U/µl [2]: 1.2 O.D.
- O.D., FX activation by NovoSeven (0.7 ng/ml), AT III constant 20 µg/ml, heparin 0.25 U/µl [2]: 1.04 O.D.
- O.D., FX activation by NovoSeven (0.7 ng/ml), AT III constant 20 µg/ml, heparin 1.25 U/µl [2]: 0.98 O.D.
- O.D., FX activation by NovoSeven (0.7 ng/ml), AT III constant 20 µg/ml, heparin 6.25 U/µl [2]: 1 O.D.
- O.D., FX activation by NovoSeven (0.7 ng/ml), Control [2]: 1.43 O.D.
Substance: Anti thrombin III (ATIII) (from UniProt P01008 33-464)
